Results: patent US7183387 (Genentech, dated 2007)

T1: human FcγRIIA-R131 α subunit extracellular domain-6His-GST fusion (human, UniProt P12318 34-217)
T1 construct: also called FcγRIIA-Arg131; not shown: glutathione S-transferase (GST)
T1 sequence: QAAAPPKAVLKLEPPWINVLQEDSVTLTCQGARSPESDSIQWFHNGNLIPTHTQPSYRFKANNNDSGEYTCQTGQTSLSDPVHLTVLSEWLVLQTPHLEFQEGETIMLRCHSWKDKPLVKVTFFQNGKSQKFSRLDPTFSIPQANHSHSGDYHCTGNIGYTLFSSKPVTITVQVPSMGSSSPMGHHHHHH

T2: human FcγRIIB α subunit extracellular domain-6His-GST fusion (human, UniProt P31994 43-217)
T2 construct: not shown: glutathione S-transferase (GST)
T2 sequence: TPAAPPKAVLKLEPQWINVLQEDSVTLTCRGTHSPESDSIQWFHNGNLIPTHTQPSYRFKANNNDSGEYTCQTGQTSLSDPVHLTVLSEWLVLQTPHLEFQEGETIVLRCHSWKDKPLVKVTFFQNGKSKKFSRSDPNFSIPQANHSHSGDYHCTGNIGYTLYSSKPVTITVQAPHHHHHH


How the values were obtained:
Test in all cases: ELISA, IgG:IgE hexamers on receptor-GST
[1] = target: T1, human FcγRIIA-R131 α subunit …
[2] = target: T2, human FcγRIIB α subunit extracellular …
[3] = target: T3, human FcγRIIIA-F158 α subunit extracellular domain-6His-GST fusion (human, UniProt P08637 17-208)
T3 construct: also called FcγRIIIA-Phe158; not shown: glutathione S-transferase (GST)
T3 sequence (P08637 other isoform, or with tags, fused parts or gaps, form in doubt): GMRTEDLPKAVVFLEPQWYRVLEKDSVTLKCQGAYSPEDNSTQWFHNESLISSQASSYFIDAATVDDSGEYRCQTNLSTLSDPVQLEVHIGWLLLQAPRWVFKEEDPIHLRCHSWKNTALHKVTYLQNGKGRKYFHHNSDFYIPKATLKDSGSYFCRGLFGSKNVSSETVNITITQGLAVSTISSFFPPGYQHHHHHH

Binder | ratio to native IgG1 [1] | ratio to native IgG1 [2] | ratio to native IgG1 [3]
E27 IgG1 variant K334(353)G (antibody, also called IG2 179) heavy: not shown light: DIQLTQSPSSLSASVGDRVTITCRASKPVDGEGDSYLNWYQQKPGKAPKLLIYAASYLESGVPSRFSGSGSGTDFTLTISSLQPEDFATYYCQQSHEDPYTFGQGTKVEIKRTVAAPSVFIFPPSDEQLKSGTASVVCLLNNFYPREAKVQWKVDNALQSGNSQESVTEQDSKDSTYSLSSTLTLSKADYEKHKVYACEVTHQGLSSPVTKSFNRGEC | 0.76 | 0.6 | 0.88
E27 IgG1 variant A327(346)S (antibody) heavy: not shown light: DIQLTQSPSSLSASVGDRVTITCRASKPVDGEGDSYLNWYQQKPGKAPKLLIYAASYLESGVPSRFSGSGSGTDFTLTISSLQPEDFATYYCQQSHEDPYTFGQGTKVEIKRTVAAPSVFIFPPSDEQLKSGTASVVCLLNNFYPREAKVQWKVDNALQSGNSQESVTEQDSKDSTYSLSSTLTLSKADYEKHKVYACEVTHQGLSSPVTKSFNRGEC | 0.23 | 0.22 | 0.06
E27 IgG1 variant A330(349)D (antibody) heavy: not shown light: DIQLTQSPSSLSASVGDRVTITCRASKPVDGEGDSYLNWYQQKPGKAPKLLIYAASYLESGVPSRFSGSGSGTDFTLTISSLQPEDFATYYCQQSHEDPYTFGQGTKVEIKRTVAAPSVFIFPPSDEQLKSGTASVVCLLNNFYPREAKVQWKVDNALQSGNSQESVTEQDSKDSTYSLSSTLTLSKADYEKHKVYACEVTHQGLSSPVTKSFNRGEC | 0.18 | 0.08 | 0.07
E27 IgG1 variant D270(283)E (antibody, also called IG2 93) heavy: not shown light: DIQLTQSPSSLSASVGDRVTITCRASKPVDGEGDSYLNWYQQKPGKAPKLLIYAASYLESGVPSRFSGSGSGTDFTLTISSLQPEDFATYYCQQSHEDPYTFGQGTKVEIKRTVAAPSVFIFPPSDEQLKSGTASVVCLLNNFYPREAKVQWKVDNALQSGNSQESVTEQDSKDSTYSLSSTLTLSKADYEKHKVYACEVTHQGLSSPVTKSFNRGEC | 0.08 | 0.06 | 0.9
E27 IgG1 variant A327(346)G (antibody) heavy: not shown light: DIQLTQSPSSLSASVGDRVTITCRASKPVDGEGDSYLNWYQQKPGKAPKLLIYAASYLESGVPSRFSGSGSGTDFTLTISSLQPEDFATYYCQQSHEDPYTFGQGTKVEIKRTVAAPSVFIFPPSDEQLKSGTASVVCLLNNFYPREAKVQWKVDNALQSGNSQESVTEQDSKDSTYSLSSTLTLSKADYEKHKVYACEVTHQGLSSPVTKSFNRGEC | 0.92 | 0.83 | 0.36
E27 IgG1 variant D270(283)N (antibody, also called IG2 92) heavy: not shown light: DIQLTQSPSSLSASVGDRVTITCRASKPVDGEGDSYLNWYQQKPGKAPKLLIYAASYLESGVPSRFSGSGSGTDFTLTISSLQPEDFATYYCQQSHEDPYTFGQGTKVEIKRTVAAPSVFIFPPSDEQLKSGTASVVCLLNNFYPREAKVQWKVDNALQSGNSQESVTEQDSKDSTYSLSSTLTLSKADYEKHKVYACEVTHQGLSSPVTKSFNRGEC | 0.03 | 0.05 | 0.04
E27 IgG1 variant D265(278)E (antibody, also called IG2 158) heavy: not shown light: DIQLTQSPSSLSASVGDRVTITCRASKPVDGEGDSYLNWYQQKPGKAPKLLIYAASYLESGVPSRFSGSGSGTDFTLTISSLQPEDFATYYCQQSHEDPYTFGQGTKVEIKRTVAAPSVFIFPPSDEQLKSGTASVVCLLNNFYPREAKVQWKVDNALQSGNSQESVTEQDSKDSTYSLSSTLTLSKADYEKHKVYACEVTHQGLSSPVTKSFNRGEC | 0.11 | 0.03 | 0.02
E27 IgG1 variant A330(349)K (antibody, also called IG2 197) heavy: not shown light: DIQLTQSPSSLSASVGDRVTITCRASKPVDGEGDSYLNWYQQKPGKAPKLLIYAASYLESGVPSRFSGSGSGTDFTLTISSLQPEDFATYYCQQSHEDPYTFGQGTKVEIKRTVAAPSVFIFPPSDEQLKSGTASVVCLLNNFYPREAKVQWKVDNALQSGNSQESVTEQDSKDSTYSLSSTLTLSKADYEKHKVYACEVTHQGLSSPVTKSFNRGEC | 1.28 | 1.25 | 1.28
E27 IgG1 variant D249(262)E (antibody, also called IG2 222) heavy: not shown light: DIQLTQSPSSLSASVGDRVTITCRASKPVDGEGDSYLNWYQQKPGKAPKLLIYAASYLESGVPSRFSGSGSGTDFTLTISSLQPEDFATYYCQQSHEDPYTFGQGTKVEIKRTVAAPSVFIFPPSDEQLKSGTASVVCLLNNFYPREAKVQWKVDNALQSGNSQESVTEQDSKDSTYSLSSTLTLSKADYEKHKVYACEVTHQGLSSPVTKSFNRGEC | 0.97 | 0.99 | 0.84
E27 IgG1 variant D265(278)N (antibody) heavy: not shown light: DIQLTQSPSSLSASVGDRVTITCRASKPVDGEGDSYLNWYQQKPGKAPKLLIYAASYLESGVPSRFSGSGSGTDFTLTISSLQPEDFATYYCQQSHEDPYTFGQGTKVEIKRTVAAPSVFIFPPSDEQLKSGTASVVCLLNNFYPREAKVQWKVDNALQSGNSQESVTEQDSKDSTYSLSSTLTLSKADYEKHKVYACEVTHQGLSSPVTKSFNRGEC | 0.02 | 0.03 | 0.02

Now from value to binder:

ratio to native IgG1 [1] | ratio to native IgG1 [2] | ratio to native IgG1 [3] | Binder
 |  | 1.26 | E27 IgG1 variant E333(352)D (antibody) heavy: not shown light: DIQLTQSPSSLSASVGDRVTITCRASKPVDGEGDSYLNWYQQKPGKAPKLLIYAASYLESGVPSRFSGSGSGTDFTLTISSLQPEDFATYYCQQSHEDPYTFGQGTKVEIKRTVAAPSVFIFPPSDEQLKSGTASVVCLLNNFYPREAKVQWKVDNALQSGNSQESVTEQDSKDSTYSLSSTLTLSKADYEKHKVYACEVTHQGLSSPVTKSFNRGEC
1.07 | 1.04 | 1.09 | E27 IgG1 variant D280(295)S (antibody) heavy: not shown light: DIQLTQSPSSLSASVGDRVTITCRASKPVDGEGDSYLNWYQQKPGKAPKLLIYAASYLESGVPSRFSGSGSGTDFTLTISSLQPEDFATYYCQQSHEDPYTFGQGTKVEIKRTVAAPSVFIFPPSDEQLKSGTASVVCLLNNFYPREAKVQWKVDNALQSGNSQESVTEQDSKDSTYSLSSTLTLSKADYEKHKVYACEVTHQGLSSPVTKSFNRGEC
1.07 | 1.22 | 1.16 | E27 IgG1 variant D280(295)N (antibody, also called IG2 79) heavy: not shown light: DIQLTQSPSSLSASVGDRVTITCRASKPVDGEGDSYLNWYQQKPGKAPKLLIYAASYLESGVPSRFSGSGSGTDFTLTISSLQPEDFATYYCQQSHEDPYTFGQGTKVEIKRTVAAPSVFIFPPSDEQLKSGTASVVCLLNNFYPREAKVQWKVDNALQSGNSQESVTEQDSKDSTYSLSSTLTLSKADYEKHKVYACEVTHQGLSSPVTKSFNRGEC
 |  | 0.94 | E27 IgG1 variant E333(352)S (antibody, also called IG2 143) heavy: not shown light: DIQLTQSPSSLSASVGDRVTITCRASKPVDGEGDSYLNWYQQKPGKAPKLLIYAASYLESGVPSRFSGSGSGTDFTLTISSLQPEDFATYYCQQSHEDPYTFGQGTKVEIKRTVAAPSVFIFPPSDEQLKSGTASVVCLLNNFYPREAKVQWKVDNALQSGNSQESVTEQDSKDSTYSLSSTLTLSKADYEKHKVYACEVTHQGLSSPVTKSFNRGEC
 |  | 0.85 | E27 IgG1 variant E333(352)K (antibody) heavy: not shown light: DIQLTQSPSSLSASVGDRVTITCRASKPVDGEGDSYLNWYQQKPGKAPKLLIYAASYLESGVPSRFSGSGSGTDFTLTISSLQPEDFATYYCQQSHEDPYTFGQGTKVEIKRTVAAPSVFIFPPSDEQLKSGTASVVCLLNNFYPREAKVQWKVDNALQSGNSQESVTEQDSKDSTYSLSSTLTLSKADYEKHKVYACEVTHQGLSSPVTKSFNRGEC
0.42 | 0.45 |  | E27 IgG1 variant S267(280)T (antibody) heavy: not shown light: DIQLTQSPSSLSASVGDRVTITCRASKPVDGEGDSYLNWYQQKPGKAPKLLIYAASYLESGVPSRFSGSGSGTDFTLTISSLQPEDFATYYCQQSHEDPYTFGQGTKVEIKRTVAAPSVFIFPPSDEQLKSGTASVVCLLNNFYPREAKVQWKVDNALQSGNSQESVTEQDSKDSTYSLSSTLTLSKADYEKHKVYACEVTHQGLSSPVTKSFNRGEC
0.89 | 0.73 | 1.13 | E27 IgG1 variant E269(282)D (antibody) heavy: not shown light: DIQLTQSPSSLSASVGDRVTITCRASKPVDGEGDSYLNWYQQKPGKAPKLLIYAASYLESGVPSRFSGSGSGTDFTLTISSLQPEDFATYYCQQSHEDPYTFGQGTKVEIKRTVAAPSVFIFPPSDEQLKSGTASVVCLLNNFYPREAKVQWKVDNALQSGNSQESVTEQDSKDSTYSLSSTLTLSKADYEKHKVYACEVTHQGLSSPVTKSFNRGEC
0.08 | 0.16 | 0.28 | E27 IgG1 variant E269(282)Q (antibody, also called IG2 169) heavy: not shown light: DIQLTQSPSSLSASVGDRVTITCRASKPVDGEGDSYLNWYQQKPGKAPKLLIYAASYLESGVPSRFSGSGSGTDFTLTISSLQPEDFATYYCQQSHEDPYTFGQGTKVEIKRTVAAPSVFIFPPSDEQLKSGTASVVCLLNNFYPREAKVQWKVDNALQSGNSQESVTEQDSKDSTYSLSSTLTLSKADYEKHKVYACEVTHQGLSSPVTKSFNRGEC
